Test results taken from patent US7740850B2, “PDGFRβ-specific antibodies” (ImClone, LLC, priority 2007, dated 2010).

B1: 2C5: PDGFRβ-specific human antibody binding both human and murine PDGFRβ; SEQ ID NOS in Table 1 (antibody, listed as Homo sapiens, V domains shown)
VH: QVQLVQSGAEVKKPGSSVKVSCKASGGTFSSYAISWVRQAPGQGLEWMGRIIPILGIANYAQKFQGRVTITADKSTSTAYMELSSLRSEDTAVYYCARDMGSRNYYYFYWGQGTLVTVSS
VL: EIVLTQSPATLSLSPGERATLSCRASQSVGRYLAWYQQKPGQAPRLLIYGASNRATGIPARFSGSGSGTDFTLTISSLEPEDFAVYYCQQRSNWPLTFGGGTKVEIK
B2: 1B3: human anti-mouse PDGFRβ antibody from Fab phage display library, human κ/γ1 constant regions; SEQ ID NOS in Table 1 (antibody, listed as Homo sapiens, V domains shown)
VH: QVQLQESGGGLVKPGGSLRLSCAASGFTFSSYSMNWVRQAPGKGLEWVSSISSSSSYIYYADSVKGRFTISRDNSKNTLYLQMNSLRAEDTAVYYCAKGGRPLLVFDFWGQGTLVTVS
VL: EIVMTQSPGTLSLSPGERATLSCRASQSVSSSYLAWYQQKPGQAPRLLIYDASKRATGIPARFSGSGSGTDFTLTISTLESEDSAVYYCQQRGYWPPITFGQGTRLEIKR
modifications: human kappa/gamma1 constant regions

What was measured:
[1] = tested on: Akt and p44/42 MAP kinase in D122 cells; assay: PDGF-BB-stimulated downstream signaling (Western blot); assay type: cell-based, mouse
Description: To study the downstream signaling, the cell lysate from the above treatment were resolved by a 4-12% NuPAGE Bis-Tris gel. Phosphorylated Akt and p44/42 mitogen-activated protein kinase (MAPK) were detected using an anti-phospho-Akt and an anti-phospho-p44/p42 MAPK and p44/p42 MAPK, respectively (eBioscience, San Diego, Calif.).

human PDGFRα = human PDGFRα (Homo sapiens, UniProt P16234); assay: Binding to PDGFRα
[2] = tested on: OV-CAR-5 ovarian carcinoma xenograft; assay: Subcutaneous tumor xenograft model; assay type: in vivo, mouse; conditions: for Tumor Volume T/C %: OVCAR-5 xenograft, monotherapy
Experimental: (§1) Six xenograft models, SK-OV-3, OV-CAR-8, BxPC-3, OV-CAR-5, Caki-1 and NCI-H460 (A to F, respectively) were used to examine the effects of 1B3 on xenograft tumors in athymic nude mice. Mice with established tumors (˜250-300 mm^3) were randomly grouped and treated with 1B3, normal human IgG, or saline by intraperitoneal injection twice weekly (except for BxPC-3 model where the mice were treated three times a week) at the dose indicated. Tumor volumes were measured twice a week and are presented as mean±SEM. *1 indicates the loss of one mouse due to severe illness. 1B3 binds to mouse, but not human, PDGFRβ. Accordingly, the observed responses to treatment result from inhibition of stimulation of host cells.
(§2) Antitumor activity of anti-mPDGFRβ antibody in tumor xenograft models. Six human xenograft tumor models, including three ovarian carcinoma (SK-OV-3, OV-CAR-5 and OV-CAR-8), one pancreatic carcinoma (BxPC3), one lung carcinoma (NCI-H460), and one kidney carcinoma (Caki-1), were used to assess the antitumor activity of 1B3 in vivo. Athymic (nu/nu) mice (female, 7-8 weeks of age) were housed for 7-10 days before xenograft implantation. Each mouse was injected subcutaneously with 3-10×10^6 cells of SK-OV-3, OVCAR-5, OVCAR-8, Caki-1, BxPC3 or NCI-H460 tumor cells. When tumors reached approximately 250-300 mm^3, mice were randomized into groups of 10 to 12 animals each and treated by intraperitoneal injection, 2 to 3 times per week, with 1B3, DC101, or 1B3 in combination with DC101. Human IgG and/or USP saline were used as control groups. Tumor sizes and mouse body weight were measured twice a week. Tumor volume was calculated using the formula: π/6×(length×width^2), where length=longest diameter and width=diameter perpendicular to length. The ratio of average tumor volume in the treatment group versus that in the control group (T/C %) was calculated. Statistic analysis was performed by Student's t-test.
(§3) To study the antitumor effects of monotherapy with an anti-PDGFRβ antibody, mice were treated with 1B3, normal human IgG, or saline twice weekly by intraperitoneal injections. In SK-OV-3 model, tumor-bearing mice were given 1B3 at 6, 20, or 60 mg/kg dose.
(§4) Antitumor activity of anti-PDGFRβ antibody in tumor xenograft models. The five human xenograft tumor models described above (OVCAR-5 and OVCAR-8, BxPC3, NCI-H460, and Caki-1) were used to assess the antitumor activity of 2C5 in vivo. 2C5 which binds to and inhibits human PDGFRβ receptors of the tumor and mouse receptors of the vasculature was compared to 1B3 which bound only to mouse vasculature. […] (FIG. 9; Table 2).

[3] = tested on: OV-CAR-8 ovarian carcinoma xenograft; assay: Subcutaneous tumor xenograft model; assay type: in vivo, mouse; conditions: for Tumor Volume T/C %: OVCAR-8 xenograft, monotherapy
Experimental: as §1, §2, §3, §4

[4] = tested on: BxPC-3 pancreatic carcinoma xenograft; assay: Subcutaneous tumor xenograft model; assay type: in vivo, mouse; conditions: for Tumor Volume T/C %: BxPC3 xenograft, monotherapy
Experimental: Six xenograft models, SK-OV-3, OV-CAR-8, BxPC-3, OV-CAR-5, Caki-1 and NCI-H460 (A to F, respectively) were used to examine the effects of 1B3 on xenograft tumors in athymic nude mice. Mice with established tumors (˜250-300 mm^3) were randomly grouped and treated with 1B3, normal human IgG, or saline by intraperitoneal injection twice weekly (except for BxPC-3 model where the mice were treated three times a week) at the dose indicated.
Subcutaneous xenografts of BxPC-3 (A) or 5×10^6 NCI-H460 (B) were established in female athymic (nu/nu) mice. When tumors reached ˜300-350 mm^3, mice were randomized and divided into four groups (n=12), and treated with USP saline, 40 mg/kg of 1B3, 40 mg/kg of DC101 or 40 mg/kg 1B3 plus 40 mg/kg DC101, three times a week.
as §2, with “Six” for “Antitumor activity of anti-mPDGFRβ antibody in tumor xenograft models. Six”
as §3
Athymic nude mice bearing xenografted tumors of 300-350 mm^3 size were randomized and divided into four treatment groups (n=12/group), and were treated by intraperitoneal injections three times a week with saline, 1B3 (40 mg/kg), DC101 (40 mg/kg), or 1B3 (40 mg/kg) plus DC101 (40 mg/kg).
The five human xenograft tumor models described above (OVCAR-5 and OVCAR-8, BxPC3, NCI-H460, and Caki-1) were used to assess the antitumor activity of 2C5 in vivo.

mPDGFRβ = mPDGFRβ (Mus musculus, UniProt P05622); assay: Antibody affinity determination (BIAcore, surface plasmon resonance); assay type: binding
Experimental: Antibody affinity determination. The binding kinetics of various Fab and IgG to mPDGFRβ were measured using a BIAcore 3000 biosensor (BIACORE, Inc., Uppsala, Sweden). Briefly, mPDGFRβ was immobilized onto a sensor chip and soluble antibodies were injected at concentrations ranging from 1.5 nM to 100 nM. Sensorgrams were obtained at each concentration and were evaluated using the program, BIA Evaluation 2.0. The affinity constant, Kd, was calculated from the ratio of dissociation rate (koff)/association rate (kon) (Lu, D. et al., 2002; Zhu, Z. et al., 1998; Loizos, N. et al., 2005).

human PDGFRα, sequence (P16234 24-1089): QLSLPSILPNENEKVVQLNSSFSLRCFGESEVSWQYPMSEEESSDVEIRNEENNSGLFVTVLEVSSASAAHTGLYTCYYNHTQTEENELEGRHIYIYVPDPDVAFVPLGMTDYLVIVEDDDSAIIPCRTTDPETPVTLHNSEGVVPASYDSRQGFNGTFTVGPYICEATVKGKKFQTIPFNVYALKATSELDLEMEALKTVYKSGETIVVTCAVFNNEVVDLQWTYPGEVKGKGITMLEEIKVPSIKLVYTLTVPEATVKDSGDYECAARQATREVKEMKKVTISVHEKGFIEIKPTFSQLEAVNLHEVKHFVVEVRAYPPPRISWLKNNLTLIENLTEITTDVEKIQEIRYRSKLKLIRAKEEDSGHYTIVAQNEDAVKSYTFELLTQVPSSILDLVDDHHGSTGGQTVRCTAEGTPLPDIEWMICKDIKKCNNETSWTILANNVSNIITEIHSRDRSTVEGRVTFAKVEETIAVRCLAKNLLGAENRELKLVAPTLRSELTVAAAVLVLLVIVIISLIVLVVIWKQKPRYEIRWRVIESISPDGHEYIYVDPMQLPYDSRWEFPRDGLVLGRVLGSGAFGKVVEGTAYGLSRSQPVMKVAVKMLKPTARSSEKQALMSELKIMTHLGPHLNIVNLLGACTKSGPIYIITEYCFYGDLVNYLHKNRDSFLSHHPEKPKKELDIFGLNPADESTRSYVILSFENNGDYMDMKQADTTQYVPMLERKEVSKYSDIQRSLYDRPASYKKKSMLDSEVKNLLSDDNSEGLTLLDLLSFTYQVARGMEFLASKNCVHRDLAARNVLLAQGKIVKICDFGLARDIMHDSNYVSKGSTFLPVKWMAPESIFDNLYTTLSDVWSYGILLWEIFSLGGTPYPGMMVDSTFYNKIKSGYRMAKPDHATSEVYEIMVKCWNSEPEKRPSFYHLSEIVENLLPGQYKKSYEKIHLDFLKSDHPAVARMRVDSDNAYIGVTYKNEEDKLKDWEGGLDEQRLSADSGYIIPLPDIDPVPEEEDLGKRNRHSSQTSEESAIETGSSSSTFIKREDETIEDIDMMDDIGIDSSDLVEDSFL
mPDGFRβ, sequence (P05622 32-1098): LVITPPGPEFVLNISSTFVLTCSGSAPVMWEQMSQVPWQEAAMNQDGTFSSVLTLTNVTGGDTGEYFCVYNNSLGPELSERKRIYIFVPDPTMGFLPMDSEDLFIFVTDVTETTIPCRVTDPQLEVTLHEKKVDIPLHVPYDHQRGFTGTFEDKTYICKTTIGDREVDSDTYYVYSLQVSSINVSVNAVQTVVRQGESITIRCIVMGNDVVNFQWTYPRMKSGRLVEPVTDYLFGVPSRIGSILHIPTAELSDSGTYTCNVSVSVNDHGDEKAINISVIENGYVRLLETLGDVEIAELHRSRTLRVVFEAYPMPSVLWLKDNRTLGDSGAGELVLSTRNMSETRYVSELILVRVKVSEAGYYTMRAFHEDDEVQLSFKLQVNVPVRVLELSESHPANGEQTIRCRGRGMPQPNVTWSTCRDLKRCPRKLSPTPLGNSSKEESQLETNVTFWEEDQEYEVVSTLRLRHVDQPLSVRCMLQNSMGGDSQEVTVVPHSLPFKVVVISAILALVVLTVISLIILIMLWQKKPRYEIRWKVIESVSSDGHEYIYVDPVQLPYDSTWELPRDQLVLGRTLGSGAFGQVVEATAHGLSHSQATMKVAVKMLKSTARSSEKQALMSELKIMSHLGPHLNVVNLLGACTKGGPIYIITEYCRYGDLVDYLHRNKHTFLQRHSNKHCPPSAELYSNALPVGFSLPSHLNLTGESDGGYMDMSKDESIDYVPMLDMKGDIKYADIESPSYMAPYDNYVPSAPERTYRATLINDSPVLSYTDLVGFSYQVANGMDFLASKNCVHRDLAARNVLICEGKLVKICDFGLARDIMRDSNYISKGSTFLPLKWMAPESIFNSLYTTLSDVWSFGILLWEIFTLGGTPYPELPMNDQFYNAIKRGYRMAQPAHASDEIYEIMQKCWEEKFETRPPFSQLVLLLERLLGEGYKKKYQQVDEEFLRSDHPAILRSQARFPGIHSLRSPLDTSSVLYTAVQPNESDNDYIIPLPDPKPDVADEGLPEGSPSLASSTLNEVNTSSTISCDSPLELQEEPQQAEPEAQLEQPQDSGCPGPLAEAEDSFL

| Molecule | inhibition of PDGF-BB-stimulated phosphorylation of Akt and p44/42 MAP kinase [1] | binding to human PDGFRα (human PDGFRα) | Tumor Volume T/C % [2] [%] | Tumor Volume T/C % [3] [%] | Tumor Volume T/C % [4] [%] | Kd (mPDGFRβ; surface plasmon resonance, one experiment) [nM] | antitumor activity ([2]; OV-CAR-5, 40 mg/kg three times per week or 60 mg/kg twice weekly) | tumor growth inhibition ([3]; OV-CAR-8, 60 mg/kg i.p. twice weekly) | tumor regression, number of mice ([4]; BxPC3, 40 mg/kg each antibody i.p. three times a week) | antitumor activity ([4]; BxPC3, monotherapy 40 mg/kg i.p. three times a week) | increase of affinity for mPDGFRβ of IgG over its Fab form (mPDGFRβ; BIAcore) |
| --- | --- | --- | --- | --- | --- | --- | --- | --- | --- | --- | --- |
| B1 | potently inhibited | does not bind | 84 | 39 | 100 | 0.0605 | – | – | – | – | – |
| B2 | potently inhibited | did not bind | 92 | 43 | 100 | – | failed to show any antitumor activity | almost completely blocked the growth | no regressions | failed to show any antitumor activity | approximately 57 times |
